In paper doi:10.1101/2020.10.19.344200:

Biological target: S. scrofa RNA polymerase II (transcribing, phosphorylated, on a DNA-RNA scaffold) (S. scrofa)
Assay: cryo-EM structure

human U1 small nuclear ribonucleoprotein particle (from UniProt P08621;P09012;P09234) (complex)
percent of Pol II particles with density for U1 snRNP: 17.5%
